Measured values: US20120316071A1 (published 2012)

T1: rHuman Erythropoietin R/Fc Chimera, CF (R&D Systems Cat#963-ER) (human, UniProt P19235 25-250)
T1 construct: Bought recombinant protein; also called EPO R; EPO R/Fc; Fc part of the bought chimera not given
T1 sequence (looked up): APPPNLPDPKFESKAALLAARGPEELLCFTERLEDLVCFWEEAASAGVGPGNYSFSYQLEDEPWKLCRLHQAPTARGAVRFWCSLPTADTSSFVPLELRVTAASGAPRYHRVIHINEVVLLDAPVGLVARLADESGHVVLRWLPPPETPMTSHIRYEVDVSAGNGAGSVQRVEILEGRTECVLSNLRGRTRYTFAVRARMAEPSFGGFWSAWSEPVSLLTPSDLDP


Assays:
[1] = biological target: T2, rHuman P-Cadherin/Fc Chimera, CF (R&D Systems Cat#861-PC) (human, UniProt P22223 108-654); experiment: ECL multispot (MSD), antigen spotted on plate, Fab at 500.00 (column head: Fab [µM])
T2 construct: Bought recombinant protein; Fc part of the bought chimera not given

[2] = biological target: T3, rHuman EGF R/Fc Chimera, CF (R&D Systems Cat#344-ER) (human, UniProt P00533 25-645); experiment: as above
T3 construct: Bought recombinant protein; Fc part of the bought chimera not given

[3] = biological target: T4, rHuman HGF R/c-MET/Fc Chimera, CF (R&D Systems Cat#358-MT/CF) (human, UniProt P08581 25-932); experiment: as above
T4 construct: Bought recombinant protein; also called HGF R/Fc; Fc part of the bought chimera not given

[4] = biological target: T1, rHuman Erythropoietin R/Fc Chimera, CF …; experiment: as above
[5] = biological target: T5, rHuman IGF-1 sR (insulin-like growth factor-1 soluble receptor), CF (R&D Systems Cat#391-GR) (human, UniProt P08069 31-932); experiment: as above
T5 construct: Bought recombinant soluble receptor

[6] = biological target: T6, rHuman Notch-1/Fc Chimera, CF (R&D Systems Cat#3647-TK) (human, UniProt P46531 19-526); experiment: as above
T6 construct: Bought recombinant chimera; Fc part of the bought chimera not given

[7] = biological target: T7, rHuman CD44/Fc Chimera, CF (R&D Systems Cat#3660-CD) (human, UniProt P16070 21-220); experiment: as above
T7 construct: Bought recombinant protein; Fc part of the bought chimera not given

[8] = biological target: T8, rHuman ErbB2/Fc Chimera, CF (R&D Systems Cat#1129-ER) (human, UniProt P04626 23-652); experiment: as above
T8 construct: Bought recombinant protein; Fc part of the bought chimera not given

[9] = biological target: T9, Recombinant Human DLL4 (R&D Systems Cat#1506-D4/CF) (human, UniProt Q9NR61 27-524); experiment: as above
T9 construct: Bought recombinant protein; also called delta-like protein 4; rHuman DLL4

[10] = biological target: T2, rHuman P-Cadherin/Fc Chimera, CF (R&D …); experiment: ECL multispot (MSD), antigen spotted on plate, Fab at 0.50 (column head: Fab [µM])
[11] = biological target: T3, rHuman EGF R/Fc Chimera, CF (R&D …); experiment: as above
[12] = biological target: T4, rHuman HGF R/c-MET/Fc Chimera, CF (R&D …); experiment: as above
[13] = biological target: T1, rHuman Erythropoietin R/Fc Chimera, CF …; experiment: as above
[14] = biological target: T5, rHuman IGF-1 sR (insulin-like growth …); experiment: as above
[15] = biological target: T6, rHuman Notch-1/Fc Chimera, CF (R&D …); experiment: as above
[16] = biological target: T7, rHuman CD44/Fc Chimera, CF (R&D Systems …); experiment: as above
[17] = biological target: T8, rHuman ErbB2/Fc Chimera, CF (R&D …); experiment: as above
[18] = biological target: T9, Recombinant Human DLL4 (R&D Systems …); experiment: as above
[19] = biological target: T8, rHuman ErbB2/Fc Chimera, CF (R&D …); experiment: ECL multispot (MSD), antigen spotted on plate, Fab at 5.00 (column head: Fab [µM])

T4 sequence (P08581 25-932, change not shown): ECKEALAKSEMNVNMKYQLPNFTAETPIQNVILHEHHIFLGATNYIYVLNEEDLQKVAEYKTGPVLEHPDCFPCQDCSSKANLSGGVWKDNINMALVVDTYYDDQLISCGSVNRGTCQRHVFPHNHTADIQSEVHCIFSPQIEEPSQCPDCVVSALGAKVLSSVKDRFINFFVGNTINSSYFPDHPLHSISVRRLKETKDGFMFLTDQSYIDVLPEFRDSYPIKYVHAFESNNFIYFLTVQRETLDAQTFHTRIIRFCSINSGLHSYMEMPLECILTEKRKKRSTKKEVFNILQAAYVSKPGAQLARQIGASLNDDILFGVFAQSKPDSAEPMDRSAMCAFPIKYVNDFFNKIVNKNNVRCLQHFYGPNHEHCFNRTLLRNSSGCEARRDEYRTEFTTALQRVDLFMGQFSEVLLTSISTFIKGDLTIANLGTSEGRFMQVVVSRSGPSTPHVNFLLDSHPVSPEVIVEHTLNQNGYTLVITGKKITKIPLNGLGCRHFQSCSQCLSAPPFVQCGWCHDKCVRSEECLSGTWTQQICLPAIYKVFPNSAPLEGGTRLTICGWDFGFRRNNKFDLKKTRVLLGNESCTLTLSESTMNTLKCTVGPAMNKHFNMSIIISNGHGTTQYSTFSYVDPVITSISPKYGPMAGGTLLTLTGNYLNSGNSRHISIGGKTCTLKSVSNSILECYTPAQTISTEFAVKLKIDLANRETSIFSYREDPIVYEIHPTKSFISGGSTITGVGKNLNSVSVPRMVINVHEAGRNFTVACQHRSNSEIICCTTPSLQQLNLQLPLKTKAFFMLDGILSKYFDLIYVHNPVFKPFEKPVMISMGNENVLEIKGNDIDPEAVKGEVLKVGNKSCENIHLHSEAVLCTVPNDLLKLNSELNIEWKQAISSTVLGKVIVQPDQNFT

Row | Binder | signal/noise ratio (ECL) [1] | signal/noise ratio (ECL) [2] | signal/noise ratio (ECL) [3] | signal/noise ratio (ECL) [4] | signal/noise ratio (ECL) [5] | signal/noise ratio (ECL) [6] | signal/noise ratio (ECL) [7] | signal/noise ratio (ECL) [8] | signal/noise ratio (ECL) [9] | signal/noise ratio (ECL) [10] | signal/noise ratio (ECL) [11] | signal/noise ratio (ECL) [12] | signal/noise ratio (ECL) [13] | signal/noise ratio (ECL) [14] | signal/noise ratio (ECL) [15] | signal/noise ratio (ECL) [16] | signal/noise ratio (ECL) [17] | signal/noise ratio (ECL) [18] | signal/noise ratio (ECL) [19]
1 | Fab VH1-46_IGHD6-6*01_IGHJ1*01 & L6_IGKJ1*01 (Fab, V domains shown, Tested as a Fab expressed in E. coli; The heavy chain came from Plasmid A (CH1 with His6 and Flag tags) and the kappa light chain from Plasmid C (kappa CL); also called Wt; wildtype) VH: QVQLVQSGAEVKKPGASVKVSCKASGYTFTSYYMHWVRQAPGQGLEWMGIINPSGGSTSYAQKFQGRVTMTRDTSTSTVYMELSSLRSEDTAVYYCAREEYSSSSAEYFQHWGQGTLVTVSS VL: not shown | 0.2 | 0.7 | 0.3 | 0.8 | 0.4 | 0.8 | 0.4 | 0.3 | 16.2 | 1.3 | 1.4 | 0.6 | 0.9 | 1.2 | 2 | 1 | 1 | 2.9 | 1
2 | Fab VH1-46_IGHD6-6*01_IGHJ1*01 S102A/S103P/S104F (APF) & L6_IGKJ1*01 (Fab, V domains shown, Tested as a Fab expressed in E. coli; the constant parts (CH1 with His6/Flag tags, kappa CL) come from Plasmids A and C; also called APF triple mutant; H:APF & L:wt) VH: QVQLVQSGAEVKKPGASVKVSCKASGYTFTSYYMHWVRQAPGQGLEWMGIINPSGGSTSYAQKFQGRVTMTRDTSTSTVYMELSSLRSEDTAVYYCAREEYAPFSAEYFQHWGQGTLVTVSS VL: not shown | 3.4 | 5.5 | 2.2 | 10.4 | 1.5 | 4.2 | 2.4 | 1.7 | 181 | 0.8 | 1.1 | 0.8 | 0.9 | 1.3 | 1.4 | 1 | 1 | 34.5 | 1.1
